Publication PMC4407889, “Improved Catenated Structures of Bovine Peroxiredoxin III F190L Reveal Details of Ring-Ring Interactions and a Novel Conformational State” (PLoS ONE, 2015)

Biological target: the molecule itself
Assay: crystal structure; reduced form, crystallized in the presence of DTT; sitting-drop vapor diffusion, 16°C, 34% (v/v) 2-methyl-1,3-propanediol, 0.1 M phosphate-citrate pH 4.2; protein 15 mg/ml; space group P2(1)2(1)2; 2.2 Å

B1: bovine peroxiredoxin III F190L (enzyme, UniProt P35705 63-257, looked up)
chain: APAVTQHAPYFKGTAVVSGEFKEISLDDFKGKYLVLFFYPLDFTFVCPTEIIAFSDKASEFHDVNCEVVAVSVDSHFSHLAWINTPRKNGGLGHMNIALLSDLTKQISRDYGVLLEGPGLALRGLFIIDPNGVIKHLSVNDLPVGRSVEETLRLVKAFQFVEAHGEVCPANWTPESPTIKPHPTASREYLEKVNQ
notes: Mitochondrial 2-cys peroxiredoxin III (PrxIII), bovine, lacking its N-terminal 62 amino acid mitochondrial targeting signal; residue 1 is the N-terminal alanine of the mature protein; Construct in pET14b; Twelve chains form one (α2)6 dodecameric toroid, and two toroids interlock as a two-ring catenane in the crystal; In the oxidized form Cys47 of one monomer is disulfide-bonded to Cys168 of its …
  stoichiometry N: 12
